For this data set, the target named is ubiquitin (in vitro thiol-ubiquitination experiment, source not stated).

B1: human pub2 (protein)
chain: MERPYTFKDFLLRPRSHKSRVKGFLRLKMAYMPKNGGQDEENSDQRDDMEHGWEVVDSNDSASQHQEELPPPPLPPGWEEKVDNLGRTYYVNHNNRTTQWHRPSLMDVSSESDNNIRQINQEAAHRRFRSRRHISEDLEPEPSEGGDVPEPWETISEEVNIAGDSLGLALPPPPVSPGSRTSPQELSEELSRRLQITPDSNGEQFSSLIQREPSSRLRSCSVTDAVAEQGHLPPPSVAYVHTTPGLPSGWEERKDAKGRTYYVNHNNRTTTWTRPIMQLAEDGASGSATNSNNHLIEPQIRRPRSLSSPTVTLSAPLEGAKDSPVRRAVKDTLSNPQSPQPSPYNSPKPQHKVTQSFLPPGWEMRIAPNGRPFFIDHNTKTTTWEDPRLKFPVHMRSKTSLNPNDLGPLPPGWEERIHLDGRTFYIDHNSKITQWEDPRLQNPAITGPAVPYSREFKQKYDYFRKKLKKPADIPNRFEMKLHRNNIFEESYRRIMSVKRPDVLKARLWIEFESEKGLDYGGVAREWFFLLSKEMFNPYYGLFEYSATDNYTLQINPNSGLCNEDHLSYFTFIGRVAGLAVFHGKLLDGFFIRPFYKMMLGKQITLNDMESVDSEYYNSLKWILENDPTELDLMFCIDEENFGQTYQVDLKPNGSEIMVTNENKREYIDLVIQWRFVNRVQKQMNAFLEGFTELLPIDLIKIFDENELELLMCGLGDVDVNDWRQHSIYKNGYCPNHPVIQWFWKAVLLMDAEKRIRLLQFVTGTSRVPMNGFAELYGSNGPQLFTIEQWGSPEKLPRAHTCFNRLDLPPYETFEDLREKLLMAVENAQGFEGVD
On to B1, for which the thiol-ubiquitination in vitro entry was “both h-pub1 and h-pub2 can become thiol-ubiquitinated in vitro”.

Values taken from patent US20030199036.
